Assay results reported in US20220235344A1, “TRYPSIN VARIANTS WITH IMPROVED ENZYMATIC PROPERTIES” (BIOPHARMA TRANSLATIONSINSTITUT DESSAU FORSCHUNGS GMBH, priority 2018, published 2022).
“And” between values parts separate entries of the source, which are not always exact repeats. Equal entries are not always repeated.

Experiments:
Type in all cases: biochemical
[1] = system: R1-YRKH-R2 (Bz-PGGYRKHAG-OH) / H-RKHAK(DNP)-OH; assay: Zinc dependence of the transamidation reaction, A2C8 and K7F11, YRKH; settings: 100 μM acyl donor, 200 μM acyl acceptor
Experimental: (§1) Model transamidation reactions were performed in a solution containing 15 to 250 μM acyl donor, 2 eq. of the corresponding acyl acceptor, varying concentrations of trypsin variant, 100 mM HEPES/NaOH pH 7.8, ±0.1 mM ZnC12, 100 mM NaCl, 10 mM CaCl2) at 30° C. Acyl donor and acyl acceptor had the same amino acids in P1′-P3′ position, e.g. Bz-[…]+H-RAHAK-OH or Bz-[…]+H-RKKAK-OH. Variations are indicated. The acyl acceptor could be equipped with a 2,4-Dinitrophenyl group (DNP) at the side chain of the terminal lysine, e.g. H-RAHAK(DNP)-OH or H-RKKAK(DNP)-OH. The reactions were started by the addition of enzyme. To record the time course of product formation and/or for kinetic evaluation of the reaction several aliquots of the reaction mixture were quenched with 25% (v/v) acetic acid at distinct time points within up to 4 hours. The composition of the reaction mixture was analyzed by UPCL with method I or II, depending on the absence (method 1) or presence (method II) of a 2,4-dinitrophenyl group within the acyl acceptor (see example 1). Measurements were performed as duplicates and errors were less than 5%.

[2] = system: Bz-PGGYRKKAG-OH (acyl donor) / H-RKKAK-OH (acyl acceptor); assay: Model transamidation at high and low substrate concentrations, A2C8 and K7F11; settings: for product yield (%) / kcat, AL^app (mkat/mol) / kcat, AL^app/kcat, HL^app / kcat, HL^app (mkat/mol): no ZnCl2
Experimental: as §1
The suitability of variant A2C8 and K7F11 as transamidases was further investigated in comparison to the native Trypsiligase II. Therefore the enzymatic parameters for the catalyzed transamidation reaction were determined by a model transamidation reaction using peptide substrates with the preferred recognition motive. In addition the model transamidation reaction was performed at high (250 μM) and low (15 μM) substrate concentrations to check, whether the new biocatalysts could also efficiently catalyze the desired reaction at low substrate concentration, which is a crucial requirement for the modification of therapeutic proteins. […] It was assumed that an improved transamidation activity is reached by introducing mutations which improve the affinity of the biocatalyst for the nucleophilic peptide and/or reduce its hydrolysis activity. Therefore corresponding experimental data describing both parameters for the native Trypsiligase II as well as variant A2C8 were determined.

[3] = target: T1, Bz-AAYRAHAG-OH (acyl donor) / H-RAHAK(DNP)-OH (acyl acceptor) (Rattus norvegicus, UniProt P00763, D194K/K66E/Y45H/Y65H); assay: Zinc dependence of the transamidation reaction, Trypsiligase II
T1 construct: monomeric enzyme species (about 24 kDa); made in house; host or cells: Pichia pastoris X-33 (pPICZalphaA, secreted)
T1 sequence (P00763 24-246 Y45H/Y65H/K66E/D194K): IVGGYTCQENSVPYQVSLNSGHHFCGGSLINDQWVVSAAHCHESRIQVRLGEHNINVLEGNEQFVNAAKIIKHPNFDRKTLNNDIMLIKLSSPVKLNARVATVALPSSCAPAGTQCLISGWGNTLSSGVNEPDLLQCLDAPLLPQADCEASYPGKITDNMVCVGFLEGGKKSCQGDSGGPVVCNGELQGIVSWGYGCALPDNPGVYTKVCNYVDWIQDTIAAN
Experimental: as §1

[4] = low substrate concentration (15 μM)
[5] = R1-YRAH-R2, 250 μM acyl donor, 500 μM acyl acceptor, absence of zinc ions

B1: A2C8: Trypsiligase II + H40F, A55A, R96E, K97D, L99F, N143E, E151Y, S190V, Q192A, S214G, G219Q, A221T (protein)
chain: IVGGYTCQENSVPYQVSLNSGHFFCGGSLINDQWVVSAAHCHESRIQVRLGEHNINVLEGNEQFVNAAKIIKHPNFDEDTFNNDIMLIKLSSPVKLNARVATVALPSSCAPAGTQCLISGWGETLSSGVNYPDLLQCLDAPLLPQADCEASYPGKITDNMVCVGFLEGGKKVCAGDSGGPVVCNGELQGIVGWGYQCTLPDNPGVYTKVCNYVDWIQDTIAAN
[1]; 0.1 mM ZnCl2
  kcat, AL^app + Zn^2+ (mkat/mol): 8.42 mkat/mol
  product yield + Zn^2+ (%): 55.0%
[1]; absence of zinc ions
  kcat, AL^app − Zn^2+ (mkat/mol): 16.92 mkat/mol
  product yield − Zn^2+ (%): 57.6%
[2]; [Substrate] 15 μM Bz-PGGYRKKAG-OH, 30 μM H-RKKAK-OH
  product yield (%): 46% and 46.2%
[2]; [Substrate] 15 μM
  kcat, AL^app (mkat/mol): 10.68 mkat/mol
  kcat, AL^app/kcat, HL^app: 7.4
  kcat, HL^app (mkat/mol): 1.44 mkat/mol
[2]; [Substrate] 250 μM Bz-PGGYRKKAG-OH, 500 μM H-RKKAK-OH
  product yield (%): 64.9%
[2]; [Substrate] 250 μM
  kcat, AL^app (mkat/mol): 71.61 mkat/mol
  kcat, AL^app/kcat, HL^app: 70 and 70.9
  kcat, HL^app (mkat/mol): 1.01 mkat/mol
[2]; [4]
  apparent turnover rate of aminolysis relative to hydrolysis: sevenfold higher apparent turnover rate
  fold higher product yield than the native Trypsiligase II: 14

B2: Trypsiligase II (trypsin variant Y39H/Y59H/K60E/D189K) (protein)
chain: T1 sequence (P00763 24-246 Y45H/Y65H/K66E/D194K)
[3]
  dependence for zinc ions: strong dependence for zinc ions
  reduction of the product yield in the absence of zinc ions (factor): 4
[3]; R1-YRAH-R2, 250 μM acyl donor, 500 μM H-RAHAK(DNP)-OH, 2 μM trypsin variant, 0.1 mM ZnCl2
  kcat, AL^app + Zn^2+ (mkat/mol): 11.19 mkat/mol
[3]; R1-YRAH-R2, 250 μM acyl donor, 500 μM acyl acceptor, 0.1 mM ZnCl2
  product yield + Zn^2+ (%): 18% and 18.1%
[3]; [5]
  kcat, AL^app − Zn^2+ (mkat/mol): 0.89 mkat/mol
  product yield − Zn^2+ (%): 4% and 4.2%
[3]; YRAH
  drop of apparent turnover rate for the aminolysis reaction in the absence of zinc ions (factor): 12
